The source of these data is US20230287094A1 (LUDWIG INSTITUTE FOR CANCER RESEARCH, published 2023).

The target in one experiment is T1, human TGF-β3 (human, UniProt P10600 301-412).
T1 sequence: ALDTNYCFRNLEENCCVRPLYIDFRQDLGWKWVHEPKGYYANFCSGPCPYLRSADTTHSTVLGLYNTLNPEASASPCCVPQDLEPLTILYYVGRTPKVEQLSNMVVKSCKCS
The experiment is described as follows: cell-based or functional assay.

Experiment [1] deals with T2, human TGF-β2 (human, UniProt P61812 303-414).
T2 construct: also called TGF-ß2
T2 sequence (looked up): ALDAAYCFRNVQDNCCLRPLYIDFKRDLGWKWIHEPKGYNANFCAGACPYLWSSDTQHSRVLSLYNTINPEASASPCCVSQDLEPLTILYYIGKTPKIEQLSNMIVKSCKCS
The experiment can be described thus: assay not named. As for the experimental part: Mink lung epithelial cell line (TMLECs) were stably transfected with a truncated PAI-1 promoter fused to the firefly luciferase reporter gene. 500 pg/ml human TGF-ß3 was incubated with serial dilutions of isolated TGF-β3 antibody for 4 h at 37° C. before transfer to an equal volume of culture medium (DMEM + 10 % FCS) where 50,000 TMLEC cells had been seeded 1 - 4 h earlier. After a further 24 h incubation, luciferase activity was measured with the BRITELITE kit from Perkin-Elmer and luminescence was measured in a TOPCOUNT NXT from Perkin Elmer.
Antibody ranging from 10 to 0 µg/ml were incubated with 500 pg/ml of the different TGF-β isoforms and TMLEC cells for 24 hours.

The next experiment addresses human TGF-β1 (human, UniProt P01137 279-390). The experiment is described as follows: cell-based or functional assay.
Experiment [2] deals with T2, human TGF-β2. The experiment is described as follows: cell-based or functional assay.

human TGF-β1, sequence (P01137 279-390 limits assumed): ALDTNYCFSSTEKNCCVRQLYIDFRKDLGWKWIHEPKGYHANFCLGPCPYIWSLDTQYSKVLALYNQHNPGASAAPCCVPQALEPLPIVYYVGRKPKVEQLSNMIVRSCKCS

B1: MTGF-β3-1901/16 (antibody, IgG1, V domains shown)
VH: QVLLQQSGPELVKPGASVKISCKASGYAFSSSWIHWVKQRPGKGLEWIGRIYPGDGDTNYTGKFKGKATLTADKSSSTAYMQLSSLTSEDSAVYFCARRMITTQAAMDYWGQGTSVTVSS
VL: SFVMTQTPKFLLVSAGDRVTITCKASQSVINAVAWYQQKPGQSPKLLIYYASNRYTGVPDRFTGNGYGTDFTFTISTVQAEDLAVYFCQQDYSSPYTFGGGTKLEIK
Consider B1, for which, in the experiment with human TGF-β3, the “IC 50 (ng/ml), TMLEC PAI-1 promoter luciferase assay” value (“IC 50 (ng/ml)” for short) was 25 ng/mL.

B2: MTGF-β3-1679/2 (antibody, IgG2a, V domains shown)
VH: QVLLQQSGPELVKPGASVKISCKASGYAFSSSWIHWVKQRPGKGLEWIGRIYPGDGDTNYTGKFKGKATLTADKSSSTAYMQLSSLTSEDSAVYFCARRMITTQAAMDYWGQGTSVTVSS
VL: SFVMTQTPKFLLVSAGDRVTITCKASQSVINAVAWYQQKPGQSPKLLIYYASNRYTGVPDRFTGNGYGTDFTFTISTVQAEDLAVYFCQQDYSSPYTFGGGTKLEIK
In the case of B2, the “IC 50 (ng/ml)” value in the experiment with human TGF-β3 stood at 6 ng/mL.

B3: MTGF-β3-9/8 (antibody, IgG2a, V domains shown)
VH: QVLLQQSGPELVKPGASVKISCKASGYAFSSSWMHWVKQRPGKGLEWIGRIFPGDGDTIYNGNFKGKATLTADKSSSTAYMQLSSLTSEDSAVYFCARRMITTQAAMDYWGQGTSVTVSS
VL: SIVMTQTPKFLLVSAGDRVTITCKASQSVINDVAWYQQKPGQSPKLLIYYASNRYTGVPDRFTGNGYGTDFTFTISTVQAEDLAVYFCQQDYSSPYTFGGGTKLEIK
On to B3, for which the “IC 50 (ng/ml)” value in the experiment with human TGF-β3 amounted to 13 ng/mL.

B4: MTGF-β3-1719/13 (antibody, IgG2a, V domains shown)
VH: QVQLQQPGAELVKPGASVKMSCKASGYIFTSYWITWVKQRPGQGLEWIGDIFPGTGSTNYNEKFKTKASLTVDTSSSTANMQLSSLTSEDSAVYSCARKLGPNYAVDYWGQGTSVTVSS
VL: DVVMTQTPLSLPVSLGDQASISCRSSQSLIHSHGNTYLHWYLQKPGQSPKLLIYKLSNRFSGVPDRFSGSGSGTDFTLKISRVEAEDLGVYFCSQSTHVPFTFGSGTKLEIK
notes: also called TGF-ß3-17
As to B4, in the experiment with human TGF-β2 [1], the binding result is recorded as “binds”. The “IC 50 (ng/ml)” value was found to be 263 ng/mL with human TGF-β1 and 79 ng/mL with human TGF-β3.

B5: MTGF-β3-1203/11 (antibody, IgG2b, V domains shown)
VH: QVQLKQSGAELVKPGASVKISCKASGYTFTDYYINWVKQRPGQGLEWIGKIGPGTGRTYYNEKFKGKATLTADKSSSTAYMQLSSLTSEDSAVYFCAIYYGWGYAMDYWGQGTSVTVSS
VL: DIVMTQSPSSLSVSAGEKVTMSCKSSQSLLNSGNQKNYLAWYQQKSGQPPKLLIYGASTRESGVPDRFTGSGSGTDFTLTISSVQAEDLAVYYCQNDHGFPLTFGAGTKLELK
Turning to B5, the “IC 50 (ng/ml)” value with human TGF-β3 came out at 54 ng/mL.

B6: 1D11 mouse monoclonal anti-TGF-ß antibody (antibody, from another filing, V domains shown)
VH: QVQLQQSGPELVRPGASVKLSCKASGYIFITYWMNWVKQRPGQGLEWIGQIFPASGSTNYNEMFEGKATLTVDTSSSTAYMQLSSLTSEDSAVYYCARGDGNYALDAMDYWGQGTSVTVSS
VL: DIVLTQSPASLAVSLGQRATISCRASESVDSYGNSFMHWYQQKSGQPPKLLIYLASNLESGVPARFSGSGSRTDFTLTIDPVEADDAATYYCQQNNEDPLTFGAGTKLEIK
For the molecule B6, the IC 50 (ng/ml), TMLEC PAI-1 promoter luciferase assay in the experiment with human TGF-β2 [2] came to 53.7 ng/mL; with human TGF-β1 it was 72 ng/mL; in the experiment with human TGF-β3, 6.5 ng/mL.
